Assay results as given in US20230038638A1, “COMPLEMENT FACTOR I-RELATED COMPOSITIONS AND METHODS” (published 2023).
Changes are numbered by the printed parent chain.

Assays:
[1] = biological target: T1, human C4b (human) (UniProt P0C0L4)
T1 sequence: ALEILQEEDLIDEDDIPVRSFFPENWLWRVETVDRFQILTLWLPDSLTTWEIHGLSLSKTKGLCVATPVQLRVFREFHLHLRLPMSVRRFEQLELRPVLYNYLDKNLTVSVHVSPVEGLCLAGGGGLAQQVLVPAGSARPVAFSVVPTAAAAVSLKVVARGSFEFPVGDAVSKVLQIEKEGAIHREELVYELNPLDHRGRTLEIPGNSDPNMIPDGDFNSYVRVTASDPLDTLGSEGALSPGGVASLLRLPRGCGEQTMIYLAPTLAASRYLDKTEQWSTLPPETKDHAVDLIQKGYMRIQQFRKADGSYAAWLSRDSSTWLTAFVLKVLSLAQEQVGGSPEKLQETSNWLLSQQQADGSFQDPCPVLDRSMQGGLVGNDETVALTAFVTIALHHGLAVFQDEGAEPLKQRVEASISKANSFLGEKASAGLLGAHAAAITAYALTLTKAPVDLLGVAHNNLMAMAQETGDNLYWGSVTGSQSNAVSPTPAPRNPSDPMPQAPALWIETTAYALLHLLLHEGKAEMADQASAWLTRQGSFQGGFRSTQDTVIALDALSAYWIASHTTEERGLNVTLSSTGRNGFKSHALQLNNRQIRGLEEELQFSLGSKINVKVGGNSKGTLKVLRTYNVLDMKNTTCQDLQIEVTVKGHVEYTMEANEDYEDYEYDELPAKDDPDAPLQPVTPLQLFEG

[2] = biological target: soluble human C3b (human) (UniProt P01024)
[3] = biological target: T2, human C4b (human) (UniProt P0C0L5)
T2 sequence: T1 sequence with A151T, D317G, P364L, C365S, L368I, D369H, N420S, V451A, L454R, S530A

[4] = biological target: soluble human C3b (human) (UniProt P01024); remark: listed apart in the source
[5] = biological target: T2, human C4b (human); remark: listed apart in the source
[6] = biological target: T1, human C4b (human); remark: listed apart in the source

Substance	C4b Screen Ref Fold (fold of CFI-HSA wild type) [1]	iC3b Screen Ref Fold (fold of CFI-HSA wild type) [2]	C4c EC50 [3] [nM]	iC3b EC50 [4] [nM]	C4b Screen Ref Fold (fold of reference) [1]	C4b Screen Ref Fold (fold of CFI-HSA wild type) [5]	iC3b Screen Ref Fold (fold of reference) [2]	C4c EC50 (nM) [6] [nM]	C4b Screen Ref Fold (fold relative to CFI-HSA wild type) [5]	iC3b Screen Ref Fold (fold relative to CFI-HSA wild type) [2]	C4c EC50 [6] [nM]
CFI-HSA variant D425R; P558S; E457G; E461Q; N531G (enzyme)	4.41	1.29	4.6	4	–	–	–	–	–	–	–
CFI-HSA variant E457G; N422K; T377G (enzyme)	4.25	2.99	7.5	3.5	–	–	–	–	–	–	–
CFI-HSA variant R557A; N531M; Y403F; K504Y; E457G; E461Q (enzyme)	3.97	0.21	26.3	79.4	–	–	–	–	–	–	–
CFI-HSA variant R557K; N531M (enzyme)	2.93	0.41	124	–	–	–	–	–	–	–	–
CFI-HSA variant D425R; E530F; P558G; E457G; E461Q; N531G (enzyme)	4.13	0.87	5	–	–	–	–	–	–	–	–
CFI-HSA variant N531G; E457G; N422K; T377G (enzyme)	4.39	1.28	4.2	3.2	–	–	–	–	–	–	–
CFI-HSA variant E457G; E461Q; N422K; T377G (enzyme)	4.28	1.74	5	2.2	–	–	–	–	–	–	–
CFI-HSA variant R557A; N531M; Y403F; K504Y (enzyme)	3.28	0.03	76.3	334	–	–	–	–	–	–	–
CFI-HSA variant E461Q; N422K; T377G (enzyme)	3.96	2.75	7.9	3.6	–	–	–	–	–	–	–
CFI-HSA variant N422K; E461Q (enzyme)	2.54	2.67	51.1	4.1	–	–	–	–	–	–	–
CFI-HSA variant D425K; E530F (enzyme)	0.08	2.17	> 1000	5.8	–	–	–	–	–	–	–
CFI-HSA variant D425R; E530F; E457G; E461Q; N531G (enzyme)	4.48	0.99	6.2	3.2	–	–	–	–	–	–	–
CFI-HSA variant D425K; E530F; E457G; E461Q; N531G (enzyme)	4.4	1.08	6.4	3.4	–	–	–	–	–	–	–
CFI-HSA variant K504R; D425R; P558G; E457G; E461Q; N531G (enzyme)	4.14	1.58	4.8	–	–	–	–	–	–	–	–
CFI-HSA variant Y563H (enzyme)	–	0.73	–	24.6	1.03	0.65	1.4	855	–	–	–
CFI-HSA variant E530F; P558S; E457G; E461Q; N531G (enzyme)	–	–	9.1	4.8	–	–	–	–	–	–	–
CFI-HSA variant D425K; E457G; E461Q; N531G (enzyme)	4.26	2.07	–	2.5	–	–	–	6	3.28	0.09	–
CFI-HSA variant E457G; E461Q; F464Y; E530F; N531G; P558S (enzyme)	4.21	2.01	–	4.2	–	–	–	18.1	–	–	–
CFI-HSA variant G406D; Y408L (enzyme)	–	–	–	78.2	0.15	–	-0.02	–	–	–	> 1000
CFI-HSA variant E461M (enzyme)	–	–	–	6.9	1.9	–	2.12	148	–	–	–

Substance	C4b Screen Ref Fold (fold of CFI-HSA wild type) [1]	iC3b Screen Ref Fold (fold of CFI-HSA wild type) [2]	C4c EC50 [3] [nM]	iC3b EC50 [4] [nM]	C4b Screen Ref Fold (fold of reference) [1]	C4b Screen Ref Fold (fold of CFI-HSA wild type) [5]	iC3b Screen Ref Fold (fold of reference) [2]	C4c EC50 (nM) [6] [nM]	C4b Screen Ref Fold (fold relative to CFI-HSA wild type) [5]	iC3b Screen Ref Fold (fold relative to CFI-HSA wild type) [2]	C4c EC50 [6] [nM]
CFI-HSA variant Y408Q (enzyme)	–	–	–	49.1	0.05	–	0.84	530	–	–	–
CFI-HSA variant E457G; E461Q; E530Y; N531G; P558S (enzyme)	4.04	1.25	–	5.2	–	–	–	21	–	–	–
CFI-HSA variant G406N (enzyme)	–	–	–	35.2	0.94	–	0.59	–	–	–	> 1000
CFI-HSA variant K504M (enzyme)	–	–	–	43.8	0.14	–	0.52	> 1000	–	–	–
CFI-HSA variant K504S (enzyme)	–	–	–	43.7	0.45	–	0.25	> 1000	–	–	–
CFI-HSA variant K504W (enzyme)	–	–	–	48.7	0.27	–	0.12	> 1000	–	–	–
CFI-HSA variant K504R; D425R; E530F; E457G; E461Q; N531G (enzyme)	4.2	1.18	7.4	–	–	–	–	–	–	–	–
CFI-HSA variant T377G; E457G; E461Q; R462K; F464Y; N531G (enzyme)	4.5	2.05	–	4.2	–	–	–	3.5	–	–	–
CFI-HSA variant D425R; E457G; E461Q; N531G (enzyme)	4.25	1.9	–	2.2	–	–	–	4	–	–	–
CFI-HSA variant K504R; E530F; D425K; P558G (enzyme)	0.08	3.07	–	5.2	–	–	–	> 1000	–	–	–
CFI-HSA variant K504R; E530F; P558G; E457G; E461Q; N531G (enzyme)	3.96	1.77	8.2	–	–	–	–	–	–	–	–
CFI-HSA variant E461V (enzyme)	–	–	–	8.9	4.79	–	2.03	64.4	–	–	–
CFI-HSA variant G406S (enzyme)	–	–	–	32.6	1.83	–	0.4	–	–	–	315
CFI-HSA variant K504T (enzyme)	–	–	–	43.5	0.1	–	0.73	> 1000	–	–	–
CFI-HSA variant K504R; E530F; D425R; P558G (enzyme)	0.02	2.97	–	6.2	–	–	–	> 1000	–	–	–
CFI-HSA variant K504V (enzyme)	–	–	–	104	0.07	–	0.21	> 1000	–	–	–
CFI-HSA variant K504R; P558S; E457G; E461Q; N531G (enzyme)	4.03	2.12	–	5.5	–	–	–	9	–	–	–
CFI-HSA variant E530F; E457G; E461Q; N531G (enzyme)	4.17	2.48	–	2.9	–	–	–	9.1	–	–	–
CFI-HSA variant E461H (enzyme)	–	–	–	11.7	3.16	–	1.3	134	–	–	–
